Results on 2 proteins are retold here after article PMC4737671 (International Journal of Biological Sciences, 2016).

This series deals with the molecule itself. The series is described as follows: atomic force microscopy.

B1: BRCA1 281-701aa (domain or fragment, human, UniProt P38398 281-701, looked up)
chain: SSLQHENSSLLLTKDRMNVEKAEFCNKSKQPGLARSQHNRWAGSKETCNDRRTPSTEKKVDLNADPLCERKEWNKQKLPCSENPRDTEDVPWITLNSSIQKVNEWFSRSDELLGSDDSHDGESESNAKVADVLDVLNEVDEYSGSSEKIDLLASDPHEALICKSERVHSKSVESNIEDKIFGKTYRKKASLPNLSHVTENLIIGAFVTEPQIIQERPLTNKLKRKRRPTSGLHPEDFIKKADLAVQKTPEMINQGTNQTEQNGQVMNITNSGHENKTKGDSIQNEKNPNPIESLEKESAFKTKAEPISSSISNMELELNIHNSKAPKKNRLRRKSSTRHIHALELVVSRNLSPPNCTELQIDSCSSSEEIKKKKYNQMPVRHSRNLQLMEGKEPATGAKKSNKPNEQTSKRHDSDTFPELK
As for B1, the binding result is on record as “binds”.

B2: BRCA1 fragment 421-988aa (domain or fragment, human, UniProt P38398 421-988, looked up)
chain: EYSGSSEKIDLLASDPHEALICKSERVHSKSVESNIEDKIFGKTYRKKASLPNLSHVTENLIIGAFVTEPQIIQERPLTNKLKRKRRPTSGLHPEDFIKKADLAVQKTPEMINQGTNQTEQNGQVMNITNSGHENKTKGDSIQNEKNPNPIESLEKESAFKTKAEPISSSISNMELELNIHNSKAPKKNRLRRKSSTRHIHALELVVSRNLSPPNCTELQIDSCSSSEEIKKKKYNQMPVRHSRNLQLMEGKEPATGAKKSNKPNEQTSKRHDSDTFPELKLTNAPGSFTKCSNTSELKEFVNPSLPREEKEEKLETVKVSNNAEDPKDLMLSGERVLQTERSVESSSISLVPGTDYGTQESISLLEVSTLGKAKTEPNKCVSQCAAFENPKGLIHGCSKDNRNDTEGFKYPLGHEVNHSRETSIEMEESELDAQYLQNTFKVSKRQSFAPFSNPGNAEEECATFSAHSGSLKKQSPKVTFECEQKEENQGKNESNIKPVQTVNITAGFPVVGQKDKPVDNAKCSIKGGSRFCLSSQFRGNETGLITPNKHGLLQNPYRIPPLFPIKS
With B2, the stoichiometry N (usually a count of units in the complex or per binding partner) came to 2.
